This note sets out measurements from paper PMC8883962.

In test [1] the target is Streptococcal Protein G (SpG) (groups C and G of Streptococcal bacteria) (UniProt P06654). Description: BLI. In general terms: Biolayer interferometry detects binding as a change in optical thickness at a sensor tip.
For test [2], the target named is Staphylococcal Protein A (SpA) (Staphylococcus aureus) (UniProt P38507). As to the kind of experiment: BLI.

pKd: −log10 of the molar value.

The substance “Pertuzumab Vκ2–VH7 IgG1 (from UniProt P01857)” had a negative logarithm of the Kd (pKd) in test [1] of 9.44.

Consider “Pertuzumab Vκ6–VH2 IgG1 (from UniProt P01857)”, for which the negative logarithm of the Kd (pKd) in test [2] is 9.10; in test [1], 9.51.

For “Pertuzumab Vκ6–VH7 IgG1 (from UniProt P01857)”, the negative logarithm of the Kd (pKd) in test [2] was 9.01; in test [1], 9.55.

Turning to “Trastuzumab Vκ2–VH7 IgG1 (from UniProt P01857)”, the pKd in test [2] was 9.28; in test [1], 9.64.

As to “Pertuzumab Vκ6–VH5 IgG1 (from UniProt P01857)”, the values for the negative logarithm of the Kd (pKd) in test [2] and in test [1] were 8.90 and 9.59, respectively.

For the substance “Pertuzumab Vκ6–VH3 IgG1 (from UniProt P01857)”, the pKd in test [2] was 9.39; in test [1], 9.55.

The substance “Pertuzumab Vκ5–VH7 IgG1 (from UniProt P01857)” had a negative-log Kd (pKd) in test [1] of 9.49.

Turning to “Pertuzumab Vκ2–VH5 IgG1 (from UniProt P01857)”, the negative-log Kd (pKd) in test [2] is 8.79; in test [1], 9.52.

On to “Trastuzumab Vκ2–VH3 IgG1 (from UniProt P01857)”, for which the pKd in test [2] was 9.62; in test [1] it was 9.54.

For the substance “Trastuzumab Vκ6–VH1 IgG1 (from UniProt P01857)”, in test [1], the negative logarithm of the Kd (pKd) was 9.49.

In the case of “Pertuzumab Vκ2–VH6 IgG1 (from UniProt P01857)”, the values for the pKd in test [2] and in test [1] were 8.81 and 9.49, respectively.

“Trastuzumab Vκ6–VH5 IgG1 (from UniProt P01857)”: in test [2], the pKd was 9.08.

“Pertuzumab Vκ2–VH3 IgG1 (from UniProt P01857)”: the pKd is 9.12 in test [2] and 9.42 in test [1].

Consider “Trastuzumab Vκ2–VH2 IgG1 (from UniProt P01857)”, for which the negative-log Kd (pKd) in test [2] is 8.84; in test [1], 9.16.

In test [2], “Trastuzumab Vκ2–VH6 IgG1 (from UniProt P01857)” gave a pKd of 8.75.

In turn, “Trastuzumab Vκ2–VH1 IgG1 (from UniProt P01857)” had a pKd in test [1] of 9.41.

With “Trastuzumab Vκ6–VH4 IgG1 (from UniProt P01857)”, the negative-log Kd (pKd) in test [1] is 9.44. This pKd and that of the substance before are within 0.2 log units of each other.

Substance “Trastuzumab Vκ5–VH3 IgG1 (from UniProt P01857)” showed a pKd in test [1] of 9.49.

Take “Trastuzumab Vκ2–VH5 IgG1 (from UniProt P01857)”: the negative-log Kd (pKd) in test [2] was 8.95; in test [1] it was 9.57.

For “Trastuzumab Vκ2–VH4 IgG1 (from UniProt P01857)”, the negative logarithm of the Kd (pKd) was 8.89 in test [2] and 9.55 in test [1].

On to “Trastuzumab Vκ6–VH7 IgG1 (from UniProt P01857)”, for which the pKd in test [2] is 9.22; in test [1], 9.52.

Take “Pertuzumab Vκ5–VH3 IgG1 (from UniProt P01857)”: the pKd in test [2] is 9.03; in test [1] it was 9.47.

“Trastuzumab Vκ6–VH6 IgG1 (from UniProt P01857)”: the values for the pKd in test [2] and in test [1] were 8.75 and 9.29, respectively.

Take “Pertuzumab Vκ6–VH1 IgG1 (from UniProt P01857)”: the pKd in test [2] is 9.03; in test [1], 9.54.

“Pertuzumab Vκ6–VH4 IgG1 (from UniProt P01857)”: the pKd was 9.09 in test [2] and 9.57 in test [1].

For “Trastuzumab Vκ6–VH3 IgG1 (from UniProt P01857)”, the pKd in test [2] is 9.51; in test [1], 9.57.

For the substance “Pertuzumab Vκ2–VH2 IgG1 (from UniProt P01857)”, the pKd was 8.74 in test [2] and 9.44 in test [1].

Turning to “Pertuzumab Vκ2–VH4 IgG1 (from UniProt P01857)”, the pKd in test [2] was 8.80; in test [1], 9.60.

The pKd is the negative decadic logarithm of the Kd, by convention in mol/L. Low values mean a large Kd, high ones a small Kd.
